These results are taken from paper PMC9605926, “Safety of [^177Lu]Lu-NeoB treatment: a preclinical study characterizing absorbed dose and acute, early, and late organ toxicity” (European Journal of Nuclear Medicine and Molecular Imaging, 2022).

One series has as its system pancreas. Conditions: 100 days after once weekly for 3 consecutive weeks 37 MBq/400 pmol; cited from earlier work. The text has this:
As mentioned above, the GRPR-expressing pancreas is often named as a potential dose-limiting organ for GRPR-targeting radionuclide therapy. Pancreatitis can be diagnosed by an increase in serum lipase and amylase levels, neither of which were consistently found in this study. Furthermore, no histopathological signs of continuous or severe pancreatic toxicity was observed.

Series [1] can be described thus: Biodistribution of [177Lu]Lu-NeoB in healthy Balb/c mice, single i.v. injection, organ uptake by gamma counter. Conditions: male, mouse, pancreas, iv, total radioactivity, 1 h p.i., read-out: Pancreatic uptake. The series is classed as in vivo. As for the experimental part:
Both the biodistribution and the radiotoxicity of [^177Lu]Lu-NeoB were studied after administration of 3 different dosages of the radioligand: 40 MBq/400 pmol [^177Lu]Lu-NeoB, 80 MBq/800 pmol [^177Lu]Lu-NeoB, and 120 MBq/1200 pmol [^177Lu]Lu-NeoB. The different dosages were acquired by diluting the stock [^177Lu]Lu-NeoB solution with PBS + kolliphor HS 15 (1 mg/mL). [^177Lu]Lu-NeoB was administered intravenously (tail) to conscious animals in a total volume of 200 µL.
Each dosage of [^177Lu]Lu-NeoB was injected in N = 15 healthy male animals. At 5 different time points post injection (p.i.) (t = 1, 4, 24, 48, and 96 h), 3 animals per dosage group were sacrificed, after which blood and organs were collected and measured to determine radioactivity uptake.
Since in the radiotoxicity studies animals received 3 injections of the radioligand at 1-week intervals, an additional group of 3 male animals were injected twice with 120 MBq/1200 pmol [^177Lu]Lu-NeoB at a 7 days (168 h) interval. […] In addition, to determine the amount of radioactivity remaining in the blood and organs right before a second injection, 3 additional male animals were injected with 40 MBq/400 pmol [^177Lu]Lu-NeoB and the biodistribution was determined at t = 168 h. […]
In the biodistribution study, the adrenal glands, brain, intestines, heart, kidneys, liver, lungs, mammary fat pad, pancreas, muscle, spleen, stomach, prostate gland (M), testes (M), ovaries (F), and urinary bladder were collected, weighed, and measured for radioactivity uptake using a gamma counter (1480 WIZARD automatic γ counter; PerkinElmer). To calculate the percentage injected activity (%IA), a vial containing 200 µL of a 1:1000 dilution of the injected [^177Lu]Lu-NeoB solutions was also measured in the gamma counter. The %IA of all organs and tumor was corrected for the percentage of radioactivity left measured in the tail (injection site).

The test system of the next series is mouse kidneys. As to the kind of experiment: Binary logistic regression of absorbed kidney dose versus renal histopathology. Format: in vivo. To be noted: 19 weeks, males and females combined, n = 30; 95% CI: 6.66–11.18 Gy. On the procedure:
Statistical analysis was performed using GraphPad PRISM software (version 5). Significance levels were set at 5%. A simple binary logistic regression analysis was performed to determine a dose–effect relation between the absorbed dose and the histopathological findings in the kidneys using the log-likelihood ratio test as a significance indicator. The weight gain over time of control group 2 and treatment groups 1, 2, and 3 was compared to control group 1 by performing a two-way multiple comparison analysis of variance (ANOVA) with a Bonferroni correction. Significant outliers in the blood values set were detected with the Grubbs’ test and excluded from the data set. At a given time point, the measurements of all study groups were compared by performing a one-way ANOVA and in case of significance a Tukey test to correct for multiple comparisons. All data are represented as mean ± standard deviation (SD).
Binary logistic regression analysis was performed to determine a dose–effect relationship for the incidence of renal toxicity (Fig. 5).

Like-named read-outs stand apart in the source and are kept apart here.

As for `CC(C)CC(CC(C)C)NC(=O)[C@H](Cc1cnc[nH]1)NC(=O)CNC(=O)[C@@H](NC(=O)[C@H](C)NC(=O)[C@H](Cc1c[nH]c2ccccc12)NC(=O)[C@H](CCC(N)=O)NC(=O)[C@@H](Cc1ccccc1)NC(=O)COCC(=O)Nc1ccc(CNC(=O)CN2CCN(CC(=O)O)CCN(CC(=O)O)CCN(CC(=O)O)CC2)cc1)C(C)C` [[^177Lu]Lu-NeoB, metal not drawn], the Pancreatic alterations entry in the series on pancreas is on record as “no pancreatic alterations”. Also, the tissue uptake at 1 h in series [1] (40 MBq/400 pmol) came to 8.27 ± 0.8 %ID/g; in series [1] (80 MBq/800 pmol), 4.05 ± 0.4 %ID/g; in series [1] (120 MBq/1200 pmol), 1.79 ± 0.2 %ID/g. Further, the “ED50 of absorbed kidney dose for hydronephrosis” value in the series with mouse kidneys is given as 8.65 Gy.
